Measurements taken from PMC6262856.

The substances below were run against biotin-15d-PGJ2 (assay: biotin pull-down (avidin) with western-blot quantification (ImageJ)). Details: 293T cells transfected with FLAG-eIF4A1s.

Row | Substance | ratio to parent
1 | FLAG-eIF4A1 (from UniProt P60842) C264S | 0.17
2 | FLAG-eIF4A1 (from UniProt P60842) C264S; R295A | 0.03
3 | FLAG-eIF4A1 (from UniProt P60842) R295A | 2.35
